For 94 variants, protein stability index results are on record in the supplement of paper PMC10567573.

B1: CPXM2 (parent)
chain: EILGCPLPDPNNYYHRRNEMTTTD
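Also: lentivirally expressed fusions sorted by FACS into six bins by GFP to DsRed ratio, PSI derived from sequencing read proportions per bin multiplied by bin number.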

In this series the parent is B1. The series is described as follows: protein stability index of a GFP-peptide fusion (GPS, HEK-293T) (PSI 1-6); higher = more stable. The conditions noted are these: c terminus: a fixed tail appended.
Take EILGCPLPMPNNYYHRRNEMTTTD [D9M]: the protein stability index was determined as 2.92.

Consider EILGCPLPLPNNYYHRRNEMTTTD [D9L], for which the protein stability index came out at 3.05.

Consider EILGCPLPIPNNYYHRRNEMTTTD [D9I], for which the protein stability index was 2.59.

Turning to EILGCPLPGPNNYYHRRNEMTTTD [D9G], the protein stability index is 3.03.

Take EILGCPLPHPNNYYHRRNEMTTTD [D9H]: the protein stability index amounted to 2.39.

Regarding EILGCPLPSPNNYYHRRNEMTTTD [D9S], the protein stability index came to 3.24.

As to EILGCPLPCPNNYYHRRNEMTTTD [D9C], the protein stability index turned out to be 3.17.

With EILGCPLPFPNNYYHRRNEMTTTD [D9F], the protein stability index stood at 2.68.

On to EICGCPLPDPNNYYHRRNEMTTTD [L3C], for which the protein stability index was found to be 4.07.

Regarding EIWGCPLPDPNNYYHRRNEMTTTD [L3W], the protein stability index was found to be 3.84.

As to EIYGCPLPDPNNYYHRRNEMTTTD [L3Y], the protein stability index came out at 3.7.

For EIRGCPLPDPNNYYHRRNEMTTTD [L3R], the protein stability index came out at 4.3.

Take EIFGCPLPDPNNYYHRRNEMTTTD [L3F]: the protein stability index turned out to be 3.38.

For EIIGCPLPDPNNYYHRRNEMTTTD [L3I], the protein stability index worked out at 3.58.

Regarding EIEGCPLPDPNNYYHRRNEMTTTD [L3E], the protein stability index amounted to 4.39.

On to EIDGCPLPDPNNYYHRRNEMTTTD [L3D], for which the protein stability index is 4.32.

Turning to EIKGCPLPDPNNYYHRRNEMTTTD [L3K], the protein stability index is 4.48.

Turning to EILGCPLPDPNNYYHRINEMTTTD [R17I], the protein stability index is 3.35.

For EILGCPLPDPNNYYHRTNEMTTTD [R17T], the protein stability index turned out to be 4.19.

As to EILGCPLPDPNNYYHRSNEMTTTD [R17S], the protein stability index is 3.88.

Take EILGCPLPDPNNYYHRCNEMTTTD [R17C]: the protein stability index came to 2.98.

On to EILGCPLPDPNNYYHRENEMTTTD [R17E], for which the protein stability index was found to be 4.43.

With EILGCPLPDPNNYYHRDNEMTTTD [R17D], the protein stability index came out at 4.64.

In the case of EILGCPLPDPNNYYFRRNEMTTTD [H15F], the protein stability index was 3.33.

In the case of EILGCPLPDPNNYYIRRNEMTTTD [H15I], the protein stability index is 3.52.

With EILGCPLPDPNNYYQRRNEMTTTD [H15Q], the protein stability index was found to be 3.96.

On to EILGCPLPDPNNYYDRRNEMTTTD [H15D], for which the protein stability index was 4.42.

As to EILGCPLPDPNNYYRRRNEMTTTD [H15R], the protein stability index amounted to 3.31.

Turning to EILGCPLPDPNNYYLRRNEMTTTD [H15L], the protein stability index was found to be 3.21.

Regarding EILGCPLPDPNNYYCRRNEMTTTD [H15C], the protein stability index was 2.71.

In the case of EILGCPLPDPNNYYERRNEMTTTD [H15E], the protein stability index was 3.62.

As to EILGCPLPDPNNYYARRNEMTTTD [H15A], the protein stability index was 3.71.

As for EILGCPLPDPNNYYGRRNEMTTTD [H15G], the protein stability index stood at 3.88.

For EILGCPLPDPNNYYKRRNEMTTTD [H15K], the protein stability index is 3.76.

With EILGCPLPDPNQYYHRRNEMTTTD [N12Q], the protein stability index turned out to be 3.73.

In the case of EILGCPLPDPNTYYHRRNEMTTTD [N12T], the protein stability index came out at 3.17.

For EILGCPLPDPNFYYHRRNEMTTTD [N12F], the protein stability index is 2.5.

In the case of EILGCPLPDPNAYYHRRNEMTTTD [N12A], the protein stability index came to 3.67.

Regarding EILGCPLPDPNRYYHRRNEMTTTD [N12R], the protein stability index was 3.35.

On to EILGCPLPDPNGYYHRRNEMTTTD [N12G], for which the protein stability index was 2.85.

As to EMLGCPLPDPNNYYHRRNEMTTTD [I2M], the protein stability index was 4.04.

Consider EDLGCPLPDPNNYYHRRNEMTTTD [I2D], for which the protein stability index worked out at 4.86.

In the case of ETLGCPLPDPNNYYHRRNEMTTTD [I2T], the protein stability index stood at 4.32.

Take EYLGCPLPDPNNYYHRRNEMTTTD [I2Y]: the protein stability index is 3.77.

On to EWLGCPLPDPNNYYHRRNEMTTTD [I2W], for which the protein stability index came to 3.82.

For EPLGCPLPDPNNYYHRRNEMTTTD [I2P], the protein stability index was found to be 4.87.

As for EALGCPLPDPNNYYHRRNEMTTTD [I2A], the protein stability index was 4.51.

As to EKLGCPLPDPNNYYHRRNEMTTTD [I2K], the protein stability index amounted to 4.54.

In the case of ERLGCPLPDPNNYYHRRNEMTTTD [I2R], the protein stability index was 4.28.

In the case of ECLGCPLPDPNNYYHRRNEMTTTD [I2C], the protein stability index was found to be 3.98.

Take ENLGCPLPDPNNYYHRRNEMTTTD [I2N]: the protein stability index was 4.55.

As to EILGCPLPDPNNYYHRRNEMTCTD [T22C], the protein stability index is 3.15.

Regarding EILGCPLPDPNNYYHRRNEMTPTD [T22P], the protein stability index came to 3.22.

As for EILGCPLPDPNNYYHRRNEMTNTD [T22N], the protein stability index stood at 3.47.

For EILGCYLPDPNNYYHRRNEMTTTD [P6Y], the protein stability index turned out to be 2.44.

Turning to EILGCILPDPNNYYHRRNEMTTTD [P6I], the protein stability index was 2.01.

Take EILGCVLPDPNNYYHRRNEMTTTD [P6V]: the protein stability index is 2.48.

As for EILGCTLPDPNNYYHRRNEMTTTD [P6T], the protein stability index turned out to be 3.49.

EILGCRLPDPNNYYHRRNEMTTTD [P6R]: the protein stability index is 2.84.

As for EILGCMLPDPNNYYHRRNEMTTTD [P6M], the protein stability index worked out at 2.07.

For the variant EILGCNLPDPNNYYHRRNEMTTTD [P6N], the protein stability index turned out to be 2.8.

In the case of EILGCSLPDPNNYYHRRNEMTTTD [P6S], the protein stability index worked out at 3.4.

On to EILGCPLPDQNNYYHRRNEMTTTD [P10Q], for which the protein stability index came to 3.4.

As for EILGCPLPDNNNYYHRRNEMTTTD [P10N], the protein stability index came to 3.37.

With EILGCPLPDPNNWYHRRNEMTTTD [Y13W], the protein stability index was determined as 2.9.

On to EILGCPLPDPNNSYHRRNEMTTTD [Y13S], for which the protein stability index was 3.86.

Take EILGCPLPDPNNLYHRRNEMTTTD [Y13L]: the protein stability index turned out to be 3.58.

As to EILGCPLPDPNNDYHRRNEMTTTD [Y13D], the protein stability index was determined as 4.43.

Take EILGCPLPDPNNGYHRRNEMTTTD [Y13G]: the protein stability index amounted to 4.08.

On to EILGCPLPDPNNFYHRRNEMTTTD [Y13F], for which the protein stability index was 3.35.

On to EILGCPLPDPNNKYHRRNEMTTTD [Y13K], for which the protein stability index is 4.14.

Consider EILGCPLPDPNNCYHRRNEMTTTD [Y13C], for which the protein stability index stood at 3.77.

For the variant MILGCPLPDPNNYYHRRNEMTTTD [E1M], the protein stability index was determined as 2.23.

As for HILGCPLPDPNNYYHRRNEMTTTD [E1H], the protein stability index was 3.16.

As for VILGCPLPDPNNYYHRRNEMTTTD [E1V], the protein stability index worked out at 2.4.

For the variant DILGCPLPDPNNYYHRRNEMTTTD [E1D], the protein stability index amounted to 3.8.

On to PILGCPLPDPNNYYHRRNEMTTTD [E1P], for which the protein stability index amounted to 4.63.

Consider LILGCPLPDPNNYYHRRNEMTTTD [E1L], for which the protein stability index came to 2.63.

For the variant WILGCPLPDPNNYYHRRNEMTTTD [E1W], the protein stability index amounted to 1.86.

In the case of EILGCPLPDPNNYYHRRNENTTTD [M20N], the protein stability index came to 3.92.

Turning to EILGCPLPDPNNYYHRRNESTTTD [M20S], the protein stability index was 3.98.

With EILGCPLPDPNNYYHRRNEGTTTD [M20G], the protein stability index is 4.6.

As for EILGCPLPDPNNYYHRRNEETTTD [M20E], the protein stability index came out at 4.59.

Regarding EILGCPLPDPNNYYHRRNETTTTD [M20T], the protein stability index worked out at 4.6.

EILGCPLPDPNNYYHRRNEYTTTD [M20Y]: the protein stability index is 2.46.

EILGCPLPDPNNYYHRRNEDTTTD [M20D]: the protein stability index stood at 4.35.

In the case of EILGCPLPDPNNYYHRRNEKTTTD [M20K], the protein stability index is 3.53.

For the variant EILGCPLPDPNNYYHRRNEQTTTD [M20Q], the protein stability index is 4.42.

Take EILGCPLPDPNNYYHRRNEATTTD [M20A]: the protein stability index came to 3.99.

Turning to EILGCPLPDPNNYYHRRNELTTTD [M20L], the protein stability index was 2.95.

With EILGCPLPDPNNYYHRRNEFTTTD [M20F], the protein stability index stood at 2.98.

On to EILGCPLPDPNNYYHFRNEMTTTD [R16F], for which the protein stability index is 2.71.

As for EILGCPLPDPNNYYHVRNEMTTTD [R16V], the protein stability index is 3.19.

Turning to EILGCPLPDPNNYYHHRNEMTTTD [R16H], the protein stability index was 3.56.
